Measured values: article PMC4678811, “Assembly and dynamics of the U4/U6 di-snRNP by single-molecule FRET” (Nucleic Acids Research, 2015)
pKd: −log10 of the molar value.

How the values were obtained:
Test in all cases: EMSA
[1] = system: Prp3/4 (Prp3-Prp4 complex);Snu13;Prp31;Sm protein complex (SmB, D1, D2, D3, E, F, G);LSm2-LSm8 complex (Saccharomyces cerevisiae;Saccharomyces cerevisiae;Saccharomyces cerevisiae;Saccharomyces cerevisiae;Saccharomyces cerevisiae); settings: EMSA: 2 nM RNA, 10 mM K-HEPES pH 7.5, 100 mM KCl, 0.01% NP-40, 20 ug E. coli tRNA in 100 ul, on ice 60 min, 4% native gel 0.5X TBE 4 C; smFRET: 10 mM Tris-HCl …
[2] = system: Prp3/4 (Prp3-Prp4 complex);Snu13 (Saccharomyces cerevisiae;Saccharomyces cerevisiae); settings: Prp3/4 titrated; Snu13 prebound; apparent; Hill 3.4; EMSA: 2 nM RNA, 10 mM K-HEPES pH 7.5, 100 mM KCl, 0.01% NP-40, 20 ug E. coli tRNA in 100 ul, on ice 60 min, 4% native gel 0.5X TBE 4 C; smFRET: 10 mM Tris-HCl …
[3] = system: Prp31;Snu13 (Saccharomyces cerevisiae;Saccharomyces cerevisiae); settings: Prp31 titrated; Snu13 prebound; apparent; Hill 2.9; EMSA: 2 nM RNA, 10 mM K-HEPES pH 7.5, 100 mM KCl, 0.01% NP-40, 20 ug E. coli tRNA in 100 ul, on ice 60 min, 4% native gel 0.5X TBE 4 C; smFRET: 10 mM Tris-HCl …
[4] = system: Prp3/4 (Prp3-Prp4 complex);Snu13;Prp31;Sm protein complex (SmB, D1, D2, D3, E, F, G) (Saccharomyces cerevisiae;Saccharomyces cerevisiae;Saccharomyces cerevisiae;Saccharomyces cerevisiae); settings: Prp3/4 titrated; Snu13, Prp31, Sm prebound; apparent; Hill 1; EMSA: 2 nM RNA, 10 mM K-HEPES pH 7.5, 100 mM KCl, 0.01% NP-40, 20 ug E. coli tRNA in 100 ul, on ice 60 min, 4% native gel 0.5X TBE 4 C; smFRET: 10 mM Tris-HCl …
[5] = system: LSm2-LSm8 complex;Snu13;Prp31 (Saccharomyces cerevisiae;Saccharomyces cerevisiae;Saccharomyces cerevisiae); settings: LSm titrated; Snu13, Prp31 prebound; apparent; Hill 1; EMSA: 2 nM RNA, 10 mM K-HEPES pH 7.5, 100 mM KCl, 0.01% NP-40, 20 ug E. coli tRNA in 100 ul, on ice 60 min, 4% native gel 0.5X TBE 4 C; smFRET: 10 mM Tris-HCl …
[6] = system: LSm2-LSm8 complex;Snu13;Prp31;Sm protein complex (SmB, D1, D2, D3, E, F, G) (Saccharomyces cerevisiae;Saccharomyces cerevisiae;Saccharomyces cerevisiae;Saccharomyces cerevisiae); settings: LSm titrated; Snu13, Prp31, Sm prebound; apparent; Hill 1; text prints 152; EMSA: 2 nM RNA, 10 mM K-HEPES pH 7.5, 100 mM KCl, 0.01% NP-40, 20 ug E. coli tRNA in 100 ul, on ice 60 min, 4% native gel 0.5X TBE 4 C; smFRET: 10 mM Tris-HCl …
[7] = system: Prp3/4 (Prp3-Prp4 complex);Snu13;Prp31 (Saccharomyces cerevisiae;Saccharomyces cerevisiae;Saccharomyces cerevisiae); settings: Prp3/4 titrated; Snu13, Prp31 prebound; apparent; Hill 1.5; EMSA: 2 nM RNA, 10 mM K-HEPES pH 7.5, 100 mM KCl, 0.01% NP-40, 20 ug E. coli tRNA in 100 ul, on ice 60 min, 4% native gel 0.5X TBE 4 C; smFRET: 10 mM Tris-HCl …
[8] = system: LSm2-LSm8 complex;Snu13 (Saccharomyces cerevisiae;Saccharomyces cerevisiae); settings: LSm titrated; Snu13 prebound; apparent; Hill 3.3; EMSA: 2 nM RNA, 10 mM K-HEPES pH 7.5, 100 mM KCl, 0.01% NP-40, 20 ug E. coli tRNA in 100 ul, on ice 60 min, 4% native gel 0.5X TBE 4 C; smFRET: 10 mM Tris-HCl …
[9] = system: Sm protein complex (SmB, D1, D2, D3, E, F, G);Snu13;Prp31 (Saccharomyces cerevisiae;Saccharomyces cerevisiae;Saccharomyces cerevisiae); settings: Sm titrated; Snu13, Prp31 prebound; apparent; Hill 2.3; EMSA: 2 nM RNA, 10 mM K-HEPES pH 7.5, 100 mM KCl, 0.01% NP-40, 20 ug E. coli tRNA in 100 ul, on ice 60 min, 4% native gel 0.5X TBE 4 C; smFRET: 10 mM Tris-HCl …
[10] = system: Sm protein complex (SmB, D1, D2, D3, E, F, G);Snu13 (Saccharomyces cerevisiae;Saccharomyces cerevisiae); settings: Sm titrated; Snu13 prebound; apparent; Hill 2.2; EMSA: 2 nM RNA, 10 mM K-HEPES pH 7.5, 100 mM KCl, 0.01% NP-40, 20 ug E. coli tRNA in 100 ul, on ice 60 min, 4% native gel 0.5X TBE 4 C; smFRET: 10 mM Tris-HCl …

U4/U6 snRNA duplex (full length) was tested, and the pKd [1] was 7.70, the pKd [2] was 7.06 and the pKd [3] was 7.30. It also gave a pKd [4] of 6.25, a pKd [5] of 7.01 and a pKd [6] of 6.81. It also gave a pKd [7] of 6.38, a pKd [8] of 7.59 and a pKd [9] of 6.97. The pKd [10] was 7.04.
